Assay results taken from patent US8071348B2, “Protein tyrosine phosphatase substrate-trapping double mutant and uses thereof” (Albert Einstein College of Medicine of Yeshiva University, priority 2002, dated 2011).
Where a chain is given by its changes, count along the chain named. In names and notes the source's numbering stands. Like-named read-outs stand apart in the source and are kept apart here.

T1: EGFR 988-998 peptide DADEpYLIPQQG
T1 chain: DADEXLIPQQG

T2: EGFR^988-998 peptide, DADEpYLIPQQG (Homo sapiens, UniProt P18031, Q262A)
T2 construct: The catalytic domain of PTP1B (residues 1 to 321) was used for in vitro study; made in house; host or cells: E. coli (pT7-7 plasmids)
T2 sequence (P18031 1-321 Q262A): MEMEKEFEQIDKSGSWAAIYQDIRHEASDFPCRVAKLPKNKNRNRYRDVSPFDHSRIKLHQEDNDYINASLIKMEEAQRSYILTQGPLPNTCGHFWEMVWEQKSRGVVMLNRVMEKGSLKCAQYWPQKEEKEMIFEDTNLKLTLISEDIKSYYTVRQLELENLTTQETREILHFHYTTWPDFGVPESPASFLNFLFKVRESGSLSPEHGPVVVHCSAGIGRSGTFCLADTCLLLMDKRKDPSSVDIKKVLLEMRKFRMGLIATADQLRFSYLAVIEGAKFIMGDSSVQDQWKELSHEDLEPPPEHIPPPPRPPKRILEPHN

B1: wild-type PTP1B, catalytic domain (residues 1 to 321) (protein)
chain: T2 sequence (P18031 1-321 Q262A) with A262Q
B2: Q262A: PTP1B mutant, Gln262 replaced by Ala, described previously (protein, UniProt P18031 1-435, looked up, variant Q262A)
Tyrosine-protein phosphatase …: MEMEKEFEQIDKSGSWAAIYQDIRHEASDFPCRVAKLPKNKNRNRYRDVSPFDHSRIKLHQEDNDYINASLIKMEEAQRSYILTQGPLPNTCGHFWEMVWEQKSRGVVMLNRVMEKGSLKCAQYWPQKEEKEMIFEDTNLKLTLISEDIKSYYTVRQLELENLTTQETREILHFHYTTWPDFGVPESPASFLNFLFKVRESGSLSPEHGPVVVHCSAGIGRSGTFCLADTCLLLMDKRKDPSSVDIKKVLLEMRKFRMGLIATADQLRFSYLAVIEGAKFIMGDSSVQDQWKELSHEDLEPPPEHIPPPPRPPKRILEPHNGKCREFFPNHQWVKEETQEDKDCPIKEEKGSPLNAAPYGIESMSQDTEVRSRVVGGSLRGAQAASPAKGEPSLPEKDEDHALSYWKPFLVNMCVATVLTAGAYLCYRFLFNSNT

Experiments:
[1] = system: EGFR^988-998 peptide, DADEpYLIPQQG; experiment: Kinetic constants for PTP1B-catalyzed hydrolysis of pTyr-containing EGFR988-998 peptide; assay type: biochemical; conditions: EGFR988-998 peptide as substrate; 25° C. and pH 7.0
Description: (§1) The catalytic domain of PTP1B (residues 1 to 321) was used for in vitro study. PTP1B mutants, C215S, D181A, and Q262A, were described previously (9, 25, 26). PTP1B double mutants, D181A/C215S and C215S/Q262A, were generated by PCR reactions, according to the standard procedure of the Quick-Change™ site-directed mutagenesis kit (Stratagene), using pT7-7/PTP1B/C215S as a template. PTP1B double mutants, D181A/C215E and D181A/Q262A, were generated by similar PCR procedures, using pT7-7/PTP1B/D181A as a template. The recombinant wild-type and mutant PTP1Bs were expressed in E. coli, and purified to homogeneity as described (25, 27). Protein concentration was determined from absorbance measurement at 280 nm, using an absorbance coefficient of 1.24 for 1 mg/ml PTP1B.
All assays were performed at 25° C. in buffer (pH 7.0, ionic strength=0.15 M) containing 50 mM 3,3-dimethylglutarate and 1 mM EDTA. A continuous spectrophotometric assay, previously described (28), was employed to determine kcat and Km for the pTyr-containing peptides. The dephosphorylation reaction was monitored by either an increase in absorbance at 282 nm, or an increase in fluorescence at 305 nm. Fluorometric and absorbance determinations were performed on a Perkin-Elmer LS50B fluorometer and a Perkin-Elmer Lambda 14 spectrophotometer, respectively. The instruments were equipped with a water-jacketed cell holder, permitting maintenance of the reaction mixture at the desired temperature (25° C.).

[2] = Kinetic constants for PTP1B-catalyzed hydrolysis of pNPP; assay type: biochemical; conditions: pNPP as substrate; 25° C. and pH 7.0
Description: as §1
PTP activity was assayed at 25° C. and pH 7.0, in a reaction mixture (0.2 ml) containing pNPP concentrations ranging from 0.2 to 5 Km. The following buffered solution was used for activity measurements: pH 7.0, 50 mM 3,3-dimethylglutarate, 1 mM EDTA; the ionic strength was 0.15 M, as adjusted by addition of NaCl. Initial rate measurements for the enzyme-catalyzed hydrolysis of pNPP were conducted as previously described (26). Michaelis-Menten kinetic parameters were determined from a direct fit of the data to the Michaelis-Menten equation, using the nonlinear regression program, KINETASYST (Intellikinetics, State College, Pa.).

EGF receptor = experiment: Substrate protection: EGF receptor tyrosine phosphorylation in COS1 cells expressing PTP1B forms (anti-pTyr Western blot); assay type: cell-based, Monkey; conditions: COS1 cell lysates, anti-pTyr immunoblot (FIG. 4)
Method: FIG. 4 sets forth Western blots (WB) that show the level of tyrosine phosphorylation in the epidermal growth factor receptor (EGFR) upon expression of the wild-type and mutant PTP1Bs (4 μg plasmid/60 mm dish) in COS1 cells. Samples (50 μg total protein) were taken from the lysates of COS1 cells transfected with 4 μg of pJ3H plasmids expressing HA-tagged wild-type PTP1B, D181A, C215S, D181A/Q262A, or D181A/C215S. These samples were loaded into each lane for SDS-PAGE electrophoresis, and transferred onto a nitrocellulose membrane. The proteins on the membrane were first immunoblotted with anti-pTyr HRP conjugate (upper panel). The membrane was then stripped and re-probed with anti-hemagglutinin (anti-HA) HRP conjugate (lower panel).
The hemagglutinin-tagged (HA-tagged) full-length human wild-type PTP1B in pJ3H expression vector was a gift from Dr. Chemoff (30). The HA-tagged PTP1B mutants, C215S, D181A, D181A/C215S, and D181A/Q262A, were generated by PCR reactions, according to the standard procedure of the Quick-Change™ site-directed mutagenesis kit (Stratagene), using pJ3H-HA-PTP1B as a template. All mutations were verified by DNA sequencing.
Monkey kidney COS1 cells (ATCC: CRL-1650) were maintained in Dulbecco's modified Eagle's minimum essential medium (DMEM), supplemented with 10% fetal bovine serum (Life Technologies, Inc.), penicillin (50 units/ml), streptomycin (50 μg/ml), and L-glutamine (2 mM) under a humidified atmosphere containing 5% CO2. In transient transfection experiments, COS1 cells were inoculated at a density of 2×10^5 cells/60-mm dish, and grown overnight in DMEM containing 10% fetal bovine serum. Transfection was performed using LipoTAXI^R according to the manufacturer's recommendations (Stratagene, Cedar Creek, Tex.). Each transfection assay included 4 μg of purified DNA mixed with LipoTAXI^R in a 1:5 DNA:lipid ratio per 60-mm dish of cells. Following transfection, the cells were exchanged to normal culture medium, and maintained for 44 to 48 h at 37° C. and 5% CO2. The efficiency of transfection, as assessed by 5-bromo-4-chloro-3-indolyl-β-D galactoside (X-Gal) staining of pCMV-β-gal-transfected (β-Gal staining kit, Invitrogen) COS cells, was 25%.
The transfected cells (treated with or without EGF) were lysed with “lysis buffer” containing 50 mM Tris-HC1 (pH 7.5), 5 mM EDTA, 150 mM NaCl, 10 mM sodium phosphate, 10 mM sodium fluoride, 5 mM iodoacetic acid, 1 mM benzamidine, 1% Triton X-100, 10 μg/ml leupeptin, and 5 μg/ml Aprotinin. Lysate protein concentration was estimated using Bio-Rad protein assay reagent (Bio-Rad, Hercules, Calif.).
For immunoprecipitation, 1 mg of cell lysate was immunoprecipitated overnight with 30 μl of agarose-conjugated anti-hemagglutinin antibody at 4° C. Immunocomplexes were washed four times with the cell lysis buffer, and boiled for 5 min in SDS-PAGE sample buffer. Proteins in the cell lysate were separated by 8% SDS-PAGE under reducing conditions, according to the method of Laemmli (31), followed by blotting onto nitrocellulose membranes (Protran, Schleicher & Schuell). The nitrocellulose membranes were blocked with 5% non-fat dry milk in Tris-buffered saline/Tween (TBST) buffer (20 mM Tris-HC1, 150 mM NaCl, 0.1% Tween-20; pH 7.6) for 1 h at 25° C.
Thereafter, blots were incubated overnight with primary antibodies diluted in TBST containing 5% non-fat dry milk at 4° C. […]

[3] = target: Ac-Asp-Ala-Asp-Glu-F2Pmp-Leu-NH2; conditions: ITC, 25° C. and pH 7.0; data from (24); cited from earlier work
[4] = target: T1, EGFR 988-998 peptide DADEpYLIPQQG
[5] = pNPP as substrate, cited from earlier work
[6] = target: T2, EGFR^988-998 peptide, DADEpYLIPQQG; conditions: cited from earlier work
[7] = EGFR988-998 peptide as substrate, 30° C. and pH 7.0 (26)
[8] = hydrolysis of EGFR988-998 peptide and phosphorylated lysozyme, previous kinetic studies (18, 26)

| Molecule | Km [1] | kcat [1] | Km [2] | kcat [2] | level of pTyr in the EGF receptor / enhancement of EGF receptor phosphorylation (EGF receptor) | Kd [3] | Km (hydrolysis of the EGFR 988-998 peptide, 25 C, pH 7.0) [4] | Km ([5]; 30° C. and pH 7.0 (26)) | kcat ([5]; 30° C. and pH 7.0 (26)) | fold reduction of kcat ([5]; (26)) | fold decrease in Km ([5]; shown previously (26)) | Km [6, 7] | kcat [6, 7] | fold reduction of kcat ([6]; EGFR988-998 peptide as substrate, (26)) | fold decrease in Km ([6]; EGFR988-998 peptide as substrate, shown previously (26)) | fold reduction of kcat [6, 8] | fold reduction of kcat/Km [6, 8] |
| --- | --- | --- | --- | --- | --- | --- | --- | --- | --- | --- | --- | --- | --- | --- | --- | --- | --- |
| B1 | 2.6 ± 0.3 µM | 30 ± 1 s^− | 2400 ± 200 µM | 9.8 ± 0.5 s⁻¹ | comparable to that in the vector control | 240 ± 50 nM | 2.6 µM |  |  |  |  |  |  |  |  |  |  |
| B2 |  |  |  |  |  |  |  | 58 ± 6 µM | 0.21 ± 0.01 s⁻¹ | 80 fold | 38 fold | 0.35 ± 0.05 µM | 0.29 ± 0.002 s^− | 150 fold | 7.4 fold | 100 fold | 10 fold |
